We go through two substances from patent US20030078373A1.

Assay [1] deals with barnase (UniProt P00648). The assay is described as follows: cell-based or functional assay.
In assay [2] the target is IGPS (49-252) (indoleglycerol phosphate synthase lacking residues 1-48). The assay is described as follows: refolding chromatography, urea-denatured IGPS (49-252) on the fragment column, peak 2 (refolded protein).
The target of assay [3] is cyclophilin A (UniProt P62937). The assay is described as follows: refolding chromatography, initially denatured cyclophilin, inactive peak.
Assay [4] concerns the target cyclophilin A (UniProt P62937). Description: refolding chromatography, initially denatured cyclophilin, active peak.
In assay [5] the target is IGPS (49-252) (indoleglycerol phosphate synthase lacking residues 1-48). The assay is described as follows: refolding chromatography, urea-denatured IGPS (49-252) on the fragment column, peak 1.

Chain of barnase (P00648 48-157 limits assumed): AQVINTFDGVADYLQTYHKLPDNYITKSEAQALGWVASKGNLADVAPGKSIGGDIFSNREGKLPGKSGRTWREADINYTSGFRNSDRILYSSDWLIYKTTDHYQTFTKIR

For GroEL 191-345, in assay [1], the C, factor by which EX2 mechanism exchange is catalysed by GroEL fragment (globally exchanging amide protons of barnase) is 10 fold; the C, factor by which EX2 mechanism exchange is catalysed by GroEL fragment (locally exchanging amide protons of barnase) came to 5 fold; the C, factor by which EX2 mechanism exchange is catalysed by GroEL fragment (mixed amide protons of barnase) was 1 fold.

For “ht-GroEL 191-345 immobilised on Ni-NTA agarose”, the Kav in assay [2] is 1.7; in assay [3], 0.38; in assay [4] it was 1.43; in assay [5], 1.
